53 variants from the Human Domainome abundance scans (Beltran et al. 2025) can be followed below.

± gives the uncertainty stated by the source.

First the molecules themselves.
B1: Histone-lysine N-methyltransferase SETD2, residues 2382 to 2430; numbered along this chain, Q9BYW2 (parent)
chain: SPPKPKTIVLPPNWKTARDPEGKIYYYHVITRQTQWDPPTWESPGDDAS

The data set covers variants of B1. The data set can be described thus: abundance fitness (aPCA) (normalised: wild type 0, dead -1); higher = more abundant; growth selection in yeast, the domain comes from the species named. The note with it: Homo sapiens.
Take SPPKPKTIVLPPNWKTARDPEGKIYYYHVITRQTQWDPPTWPSPGDDAS [E42P]: the abundance fitness was found to be 0.087 ± 0.082.
In the case of SPPKPKTIVLPPNWKTARDPEGKIYYYHVITRQTQWDPPTWWSPGDDAS [E42W], the abundance fitness is -0.172 ± 0.066.
With SPPKPKTIVLPPNWKTARDPEGKIYYYHVITRQTQWDPPTWKSPGDDAS [E42K], the abundance fitness was -0.074 ± 0.035.
Turning to SPPKPKTIVLPPNWKTARDPEGKIYYYHVITRQTQWDPPTWSSPGDDAS [E42S], the abundance fitness stood at 0.011 ± 0.062.
Consider SPPKPKTIVLPPNWKTARDPEGKIYYYHVITRQTQWDPPTWGSPGDDAS [E42G], for which the abundance fitness is -0.053 ± 0.047.
With SPPKPKTIVLPPNWKTARDPEGKIYYYHVITRQTQWDPPTWRSPGDDAS [E42R], the abundance fitness was -0.184 ± 0.042.
The value for SPPKPKTIVLPPNWKTARDPEGKIYYYHVITRQTQWDPPTWTSPGDDAS [E42T] was -0.341 ± 0.098.
Next, SPPKPKTIVLPPNWKTARDPEGKIYYYHVITRQTQWDPPTWQSPGDDAS [E42Q]: -0.291 ± 0.066.
Regarding SPPKPKTIVLPPNWKTARDPEGKIYYYHVITRQTQWDPPTWDSPGDDAS [E42D], the abundance fitness is -0.504 ± 0.17.
The value for SPPKPKTIVLPPNWKTARDPEGKIYYYHVITRQTQWDPPTWNSPGDDAS [E42N] was -0.173 ± 0.038; that for SPPKPKTIVLPPNWKTARDPEGKIYYYHVITRQTQWDPPTWFSPGDDAS [E42F] was 0.124 ± 0.1; that for SPPKPKTIVLPPNWKTARDPEGKIYYYHVITRQTQWDPPTWASPGDDAS [E42A] was -0.148 ± 0.065.
Take SPPKPKTIVLPPNWKTARDPEGKIYYYHVITRQTQWDPPTWLSPGDDAS [E42L]: the abundance fitness was -0.412 ± 0.077.
On to SPPKPKTIVLPPNWKTARDPEGKIYYYHVITRQTQWDPPTWMSPGDDAS [E42M], for which the abundance fitness is -0.457 ± 0.16.
The value for SPPKPKTIVLPPNWKTARDPEGKIYYYHVITRQTQWDPPTWVSPGDDAS [E42V] was -0.141 ± 0.048; that for SPPKPKTIVLPPNWKTARDPEGKIYYYHVITRQTQWDPPTWCSPGDDAS [E42C] was -0.303 ± 0.053; that for SPPKPKTIVLPPNWKTARDPEGKIYYYHVITRQTQWDPPTWESPWDDAS [G45W] was 0.026 ± 0.054.
Turning to SPPKPKTIVLPPNWKTARDPEGKIYYYHVITRQTQWDPPTWESPEDDAS [G45E], the abundance fitness worked out at 0.02 ± 0.065.
On to SPPKPKTIVLPPNWKTARDPEGKIYYYHVITRQTQWDPPTWESPHDDAS [G45H], for which the abundance fitness is -0.73 ± 0.31.
On to SPPKPKTIVLPPNWKTARDPEGKIYYYHVITRQTQWDPPTWESPSDDAS [G45S], for which the abundance fitness is 0.025 ± 0.04.
The value for SPPKPKTIVLPPNWKTARDPEGKIYYYHVITRQTQWDPPTWESPPDDAS [G45P] was 0.233 ± 0.035; that for SPPKPKTIVLPPNWKTARDPEGKIYYYHVITRQTQWDPPTWESPTDDAS [G45T] was -0.141 ± 0.073.
For the variant SPPKPKTIVLPPNWKTARDPEGKIYYYHVITRQTQWDPPTWESPVDDAS [G45V], the abundance fitness is -0.177 ± 0.059.
With SPPKPKTIVLPPNWKTARDPEGKIYYYHVITRQTQWDPPTWESPYDDAS [G45Y], the abundance fitness came to 0.049 ± 0.081.
Turning to SPPKPKTIVLPPNWKTARDPEGKIYYYHVITRQTQWDPPTWESPADDAS [G45A], the abundance fitness came out at 0.087 ± 0.041.
As to SPPKPKTIVLPPNWKTARDPEGKIYYYHVITRQTQWDPPTWESPIDDAS [G45I], the abundance fitness stood at 0.125 ± 0.1.
The value for SPPKPKTIVLPPNWKTARDPEGKIYYYHVITRQTQWDPPTWESPRDDAS [G45R] was 0.035 ± 0.047; that for SPPKPKTIVLPPNWKTARDPEGKIYYYHVITRQTQWDPPTWESPFDDAS [G45F] was 0.019 ± 0.069.
As for SPPKPKTIVLPPNWKTARDPEGKIYYYHVITRQTQWDPPTWESPCDDAS [G45C], the abundance fitness was -0.002 ± 0.074.
Consider SPPKPKTIVLPPNWKTARDPEGKIYYYHVITRQTQWDPPTWESPLDDAS [G45L], for which the abundance fitness is 0.076 ± 0.046.
For the variant SPPKPKTIVLPPNWKTARDPEGKIYYYHVITRQTQWDPPTWESPMDDAS [G45M], the abundance fitness is -0.082 ± 0.063.
Take SPPKPKTIVLPPNWKTARDPEGKIYYYHVITRQTQWDPPTWESPDDDAS [G45D]: the abundance fitness was -0.061 ± 0.055.
SPPKPKTIVLPPNWKTARDPEGKIYYYHVITRQTQWDPPTWESPKDDAS [G45K]: the abundance fitness was determined as 0.006 ± 0.088.
As for SPPKPKTIVLPPNWKTARDPEGKIYYYHVITRQTQWDPPTWESPQDDAS [G45Q], the abundance fitness is -0.313 ± 0.089.
Next, SPPKPKTIVLPPNWKTARDPEGKIYYYHVITRQTQWDPPTWESPGEDAS [D46E]: -0.117 ± 0.068; SPPKPKTIVLPPNWKTARDPEGKIYYYHVITRQTQWDPPTWESPGIDAS [D46I]: -0.164 ± 0.066; SPPKPKTIVLPPNWKTARDPEGKIYYYHVITRQTQWDPPTWESPGKDAS [D46K]: -0.166 ± 0.093.
As to SPPKPKTIVLPPNWKTARDPEGKIYYYHVITRQTQWDPPTWESPGHDAS [D46H], the abundance fitness amounted to 0.119 ± 0.1.
Turning to SPPKPKTIVLPPNWKTARDPEGKIYYYHVITRQTQWDPPTWESPGCDAS [D46C], the abundance fitness is -0.31 ± 0.042.
SPPKPKTIVLPPNWKTARDPEGKIYYYHVITRQTQWDPPTWESPGFDAS [D46F]: the abundance fitness is -0.361 ± 0.13.
Take SPPKPKTIVLPPNWKTARDPEGKIYYYHVITRQTQWDPPTWESPGGDAS [D46G]: the abundance fitness was -0.119 ± 0.032.
The value for SPPKPKTIVLPPNWKTARDPEGKIYYYHVITRQTQWDPPYWESPGDDAS [T40Y] was -0.123 ± 0.075; that for SPPKPKTIVLPPNWKTARDPEGKIYYYHVITRQTQWDPPPWESPGDDAS [T40P] was 0.017 ± 0.076; that for SPPKPKTIVLPPNWKTARDPEGKIYYYHVITRQTQWDPPLWESPGDDAS [T40L] was -0.071 ± 0.042.
With SPPKPKTIVLPPNWKTARDPEGKIYYYHVITRQTQWDPPIWESPGDDAS [T40I], the abundance fitness is -0.629 ± 0.17.
As to SPPKPKTIVLPPNWKTARDPEGKIYYYHVITRQTQWDPPWWESPGDDAS [T40W], the abundance fitness is -0.232 ± 0.035.
In the case of SPPKPKTIVLPPNWKTARDPEGKIYYYHVITRQTQWDPPMWESPGDDAS [T40M], the abundance fitness worked out at 0 ± 0.044.
As for SPPKPKTIVLPPNWKTARDPEGKIYYYHVITRQTQWDPPVWESPGDDAS [T40V], the abundance fitness stood at 0.057 ± 0.048.
Regarding SPPKPKTIVLPPNWKTARDPEGKIYYYHVITRQTQWDPPHWESPGDDAS [T40H], the abundance fitness was 0.155 ± 0.036.
Next, SPPKPKTIVLPPNWKTARDPEGKIYYYHVITRQTQWDPPNWESPGDDAS [T40N]: 0.045 ± 0.1.
SPPKPKTIVLPPNWKTARDPEGKIYYYHVITRQTQWDPPSWESPGDDAS [T40S]: the abundance fitness was found to be 0.062 ± 0.056.
Take SPPKPKTIVLPPNWKTARDPEGKIYYYHVITRQTQWDPPQWESPGDDAS [T40Q]: the abundance fitness was found to be 0.277 ± 0.08.
As for SPPKPKTIVLPPNWKTARDPEGKIYYYHVITRQTQWDPPRWESPGDDAS [T40R], the abundance fitness is -0.019 ± 0.033.
